The target of assay [1] is IgG1-K409R-CD20 (human). Nature of the assay: analytical cation-exchange chromatography.
The target of assay [2] is IgG1-K409R-CD20 (human). Nature of the assay: analytical cation-exchange chromatography. This is another data set of the same source.

Like-named read-outs stand apart in the source and are kept apart here.

B1: IgG1-F405L-EGFR (antibody, V domains shown)
VH: QVQLVESGGGVVQPGRSLRLSCAASGFTFSTYGMHWVRQAPGKGLEWVAVIWDDGSYKYYGDSVKGRFTISRDNSKNTLYLQMNSLRAEDTAVYYCARDGITMVRGVMKDYFDYWGQGTLVTVSS
VL: AIQLTQSPSSLSASVGDRVTITCRASQDISSALVWYQQKPGKAPKLLIYDASSLESGVPSRFSGSESGTDFTLTISSLQPEDFATYYCQQFNSYPLTFGGGTKVEIK
Turning to B1, the % bsIgG1-EGFRxCD20 by CIEX came out at 95% with IgG1-K409R-CD20 (human) [1] and 96.3% in the assay with IgG1-K409R-CD20 (human) [2].
